Data as given in the supplement of paper PMC9170038.

Tested on: MS2 coat protein
Assay: apparent KD of MS2 coat protein; higher = weaker reporter binding
Settings: Eterna round: R107
Method: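 RNA-MaP round R107: designed RNA switches with theophylline, tryptophan, arginine or FMN aptamers are transcribed on-chip within common flanks. They are titrated with SNAP-549-labelled MS2 coat protein in RNA-MaP buffer (100 mM Tris pH 7.5, 80 mM KCl, 4 mM MgCl2), without ligand or with the indicated ligand. Median apparent KD per design.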

[1] = input ligand: theophylline 20 uM
[2] = input ligand: tryptophan 2.4 mM
[3] = input ligand: theophylline 2 mM

Sequence	apparent KD of MS2 coat protein (input ligand: arginine 13.2 mM) [nM]	apparent KD of MS2 coat protein [1] [nM]	apparent KD of MS2 coat protein [2] [nM]	apparent KD of MS2 coat protein (input ligand: none) [nM]	apparent KD of MS2 coat protein [3] [nM]
AAGGUGAUCCUCGAUACCAGCUCAACAUGAGGAUCACCCAUGUAAGCCUGGAAACAGGCGAGCCCUUGGCAGCGAGUUACAUCAA [(M)'-(Theo1)-(Ms2)-(Theo2)-(M'')]	32.9	78.2	18.6	–	–
AAGUAAACAUGAGCAAAGCUCAUGUGCGAAGGAGCGGCGGAAACGCCAGGUAGGUCGCGCACAUGAGCAUCAGCCAUGUGUAUCA [Omei Arginine B SS A v2]	45.3	33.5	9	31	22.1
AAGUGGCACGGAAGGAGCGAGUUUACCUAUUACAUGAGGAUCACCCAUGUGUAUAAUGGGACUCAGGUAGGUCGCCGUUGUCACU [Same State Arginine B GF 25]	31.5	49	31.6	35.7	44.3
AAUAAACAUGAGGAUCACCCAUGUAGGGUGCGAGGACCGGUACGGCCGCCACUCGGGUGAAAACAUGAGGAUCACCCAUGUUAAA [Cloverleaf #DoubleMS2 #GUTurnoff]	75.5	176	–	–	229
AAUAAAUCGCCUGAUACCAGCGCUGGCGGACAUGAGGAUCACCCAUGUGUUACAGGCGGACGCCCUUGGCAGCGGAGCGGGAUCU [U-Shape]	16.2	21.4	19.6	20.2	23
AAUAACAAGAGGAUCACCCUUGUAAAAGAUACCAGAGUGAUGAUCCUCCCUUGGCAGCUUAACGCUGAUUGAUUACAAUCAGCGA	27	81.8	32	35.5	142
AAUAAUAACUGAAGGAGCGUCUAUAUUACAUGAGGAUCACCCAUGUUUAUAUGGUAUUAUAGACAGGUAGGUCGCAGAUUUUUUA [JR_SSArginiB_Sub016]	14.5	22.1	16.3	16.6	18.6
AAUAAUAAGGCGGCCGCCACUACACAUGAGGAUCACCCAUGUCUCGCGGGCUUGCGUUGGGAUUGUAGGACCGGGCCAAUAAUAA [Exclusion - Tryptophan B (Freestyle 11)]	15.2	35.7	–	–	30.4
AAUGCCGGAUCGGCCGCCACUGGUUGGCUCUGUGUACAUGAGGAUCACCCAUGUCCAUCCCAAACCAGGACCGGGAUCUUUGUGU [Veonmale]	14.6	17.4	–	–	13.5
AAUGCUGCCAAGGAUUCCUCAUGAGCAGAUACCAGCUAGGAAACUAGCCCUUGGCAGCUGCAACAUGAGGAUCACCCAUGUAAUA [(T)'-(M)'-(T1)-(T2)-(M1)-(M2)_Design7]	31	94.2	35.7	–	–
AAUGGCCGUACCGGAAGGGUGAUCCUCAAACGAGGACCGGUACGGCCGCCACUCGAUAACAUGAGGAUCACCCAUGUAAUAAUAA [|T'-M'-Trp-Ms2|_Design13]	85	481	–	–	677
AAUGUAAUAGUCGUACUCUUACACUGAGAAGGAGCGCGAAAGUUCGCAGGUAGGUCGCUCAGUUAUACAUGAGGAUCACCCAUGU [Bebemaata]	24.1	28.3	24.1	24.8	27.9
AAUGUAUGGCACAUGAGGAUCACCCAUGUGCGAGGACCGGUACGGCCGCCACUCGGUCCUGGGUUCUUAUUACUAUACAUUAAUG [XTryp A #15]	9.78	16	27.1	11	14.4
AAUUCCUAACAUGAGGAUCACCCAUGUGAAGGAGCGCCGAAUAAGGCAGGUAGGUCGCACAUGGAACUGCUACGAAAGUAGAAAA [XArg-A 4 V2mod]	19.2	23.3	18.8	16.2	35.1
ACACAUGAGGAUCACCCAUGUAAAGUUGAAGGAGCGAUCAUUAGGUCAGGUAGGUCGCAGCACAUGAGGAUCACCCAUGUCGUGA [DOUBLE!!! :-D #2]	31.3	85.5	86.9	96.1	73.7
ACACCAUACAUGAGGAUCACCCAUGUUACACGAGGACCGGUACGGCCGCCACUCGAAUUCAGGAAACCUCGGAUAAUAUUGUGAA [JR_SS-TryptA_Sub001]	22.3	50.1	–	–	32.4
ACAUGAAUAUCAUCUAUUUAUUGUACUGAAGGAGCGUCCAUGAGGACAGGUAGGUCGCAGUGUAAAACAUGAGGAUCACCCAUGU [Same State - Arginine A #1]	22.6	36.6	23	22.2	29
ACAUGAGGAUCACCCAUGUAACAAACAGAAGGAGCGUGAAAGAACACAGGUAGGUCGCUGAACUUAAUGAAUACUCAUUAGAUCC [JR_Nu_SSArginiA_Sub027]	13.4	18.9	14.6	14.7	15.8

Sequence	apparent KD of MS2 coat protein (input ligand: arginine 13.2 mM) [nM]	apparent KD of MS2 coat protein [1] [nM]	apparent KD of MS2 coat protein [2] [nM]	apparent KD of MS2 coat protein (input ligand: none) [nM]	apparent KD of MS2 coat protein [3] [nM]
ACAUGAGGAUCACCCAUGUAAUCAUCAGAAGGAGCGUGGAAUAACACAGGUAGGUCGCUGAUGUUAUAUUAAUCUUAUUCGUAAA [JR_ExcArginiA_Sub003]	22	18.7	14.2	13.6	13.2
ACAUGAGGAUCACCCAUGUACUGGAUCUAACGAGGACCGGUACGGCCGCCACUCGAAGAUAGGACUAUGGAAACAUAGCUUAUCA [Design 1]	15.3	19.9	14.6	15.3	18.4
ACAUGAGGAUCACCCAUGUAGCGUAGGGAAGGAGCGGAAUAAAGUCCAGGUAGGUCGCCCAUAUGAUGAUCUCACUUAUUAUCGA [#12 Same State - Arginine A]	27.7	42.5	30.5	31	42.2
ACAUGAGGAUCACCCAUGUAGUGGCACGAUACCAGCUGAUCCCGUGGCCCUUGGCAGCGUCCGGUGUGGUGCGCCGGGUUGGAGC [BBBMULLIN]	38	77.4	48.9	–	–
ACAUGAGGAUCACCCAUGUCAGGGCACGAUACCAGCUGAUCCGGUGGCCCUUGGCAGCGUGACGAGUGGUCAUGAGGAUCACACG [?fmullin]	75.8	176	130	128	158
ACAUGAGGAUCACCCAUGUCAGGGCACGAUACCAGCUGAUCCGGUGGCCCUUGGCAGCGUGACGUUUGGUCCCGCGGAUCACACG [xxmullin]	92.4	262	404	326	334
ACAUGAGGAUCACCCAUGUGAGAUAGGGAAGGAGCGCAGGAGGAUGCAGGUAGGUCGCCCACAUGAGGAUCACCCGUGUCUGGAG [#11 Exclusion - Arginine A]	33.2	33	33.1	43.4	62.4
ACAUGAGGAUCACCCAUGUGCAGCACGGAUACCAGCGUCCUAGUGCGCCCUUGGCAGCCGGACAUGAGGAUCACCCAUGUGUGGG [Exclusion Theophylline A GF30]	50.2	135	95.7	–	–
ACAUGAGGAUCACCCAUGUGGCGUCUUGAUACCAGACGAGAAGUAGUCCCUUGGCAGCAAAUACGUGAGGAUCACACAUGUGCGA [cccmullin3]	24.4	30.9	29	–	–
ACAUGAGGAUCACCCAUGUUCCUCGCCGAUACCAGUGAAGAAGUACGCCCUUGGCAGCGGAAAGAGUAUUUUGGAGAUGAGGUAC [6.Y]	57	94.3	88.3	–	–
ACAUGAGGAUCACCCAUGUUUGAUGUUCCUCGAGGACCGGUACGGCCGCCACUCGAACGAGUGGCGCGCGAGCGCGCGCUCGCGC [aRa]	11.4	20.3	–	–	14.8
ACAUGAGGAUCACCCAUGUUUGUUGUUCCUCGAGGACCGGUACGGCCGCCACUCGAACGAGUGGCGCGCGCGCGCGCGCGCGCGC [aMa]	11.6	36.4	12.6	13.3	16.4
ACAUUGCGCUCGGCCGCCACUGGCUUAUGAUUAUAAGCAUUAAUGAACAUGAGGAUCACCCAUGUCAGGACCGGGAGCGAACCAU [SSTryp B #7]	13.6	17.7	–	–	14.9
ACCGGCACCUAGGAUACCAGAUCCACAACAAACAUGAGGAUCACCCAUGUAUAAAGUGGUAUCCCUUGGCAGCCUGUGACAAUCG [theeternabot_sameState_MS2_Theo_B_19]	17	21.4	15.8	–	–
ACCUGUACGAAAAGUGCAGGACACGGAAUACGAGGACCGGUACGGCCGCCACUCGGAACCUGAGGAUCACCCUGGUAAAACCGUG [TrypAS 13 #AlternativeMS2 #Zipper #StaticStem]	19.9	22.6	19.5	17.8	24
ACGAACGCACCUGAGGAUCACCCGGGUGAUACCAGCCUGGAAACAGGCCCUUGGCAGCACCUAAAAUAAAGGUAACGUUCGAAUA [TheoAX9 #MicroSwitchBubble #AlternativeMS2]	116	234	303	335	590
ACGACGCAUAGUGAUACCAGUAGAACAUGAGGAUCACCCAUGUCUGUUAUGUACAAAUACUGCCCUUGGCAGCACUAUGCGUCAG [SSTheo B #5]	9.85	12.1	11.6	–	–
ACGAGACGUCUGGAUACCAGCCCAGCGAUAAACAUGAGGAUCACCCAUGUCAAACCACCCGGCCCUUGGCAGCCACGUACCUCAC [theeternabot_sameState_MS2_Theo_B_10]	15.9	19.1	14.9	–	–
